Data: paper PMC7864074, “Functions of Gle1 are governed by two distinct modes of self-association” (The Journal of Biological Chemistry, 2020)
Changes are numbered by the printed parent chain.

B1: Gle1^(1–360 8D) (domain or fragment, human, UniProt Q53GS7 1-360, looked up)
chain: MPSEGRCWETLKALRSSDKGRLCYYRDWLLRREDVLEECMSLPKLSSYSGWVVEHVLPHMQENQPLSETSPSSTSASALDQPSFVPKSPDASSAFSPASPATPNGTKGKDESQHTESMVLQSSRGIKVEGCVRMYELVHRMKGTEGLRLWQEEQERKVQALSEMASEQLKRFDEWKELKQHKEFQDLREVMEKSSREALGHQEKLKAEHRHRAKILNLKLREAEQQRVKQAEQERLRKEEGQIRLRADYADQEEMLQDSQQDDASEQHKALLKVDLAAFQTRGNQLCSLISGIIRASSESSYPTAESQAEAERADREDRDLDMNDGQEITRACEDKRRQDEEEAQVKLQEAQMQQGPEAH
notes: source: E. coli Rosetta, purified
B2: Gle1^152–360 (domain or fragment, human, UniProt Q53GS7 152-360, looked up)
chain: EEQERKVQALSEMASEQLKRFDEWKELKQHKEFQDLREVMEKSSREALGHQEKLKAEHRHRAKILNLKLREAEQQRVKQAEQERLRKEEGQIRLRALYALQEEMLQLSQQLDASEQHKALLKVDLAAFQTRGNQLCSLISGIIRASSESSYPTAESQAEAERALREMRDLLMNLGQEITRACEDKRRQDEEEAQVKLQEAQMQQGPEAH
notes: also called coiled-coil domain; source: E. coli Rosetta, purified (amylose resin, on-column cleavage, 30% ammonium sulfate precipitation, S200 SEC)
B3: Gle1^1–360 (domain or fragment, human, UniProt Q53GS7 1-360, looked up)
chain: B1 chain with D248L, D251L, D258L, D262L, D315L, D318M, D322L, D325L
notes: human Gle1, N-terminal region, residues 1-360; also called WT Gle1^1–360; Gle1 N-terminal region; source: E. coli Rosetta, purified (amylose resin, on-column cleavage, S200 SEC)
B4: Gle1^(1–360 Δ45–54) (domain or fragment, human, UniProt Q53GS7 1-360, looked up)
chain: MPSEGRCWETLKALRSSDKGRLCYYRDWLLRREDVLEECMSLPKHVLPHMQENQPLSETSPSSTSASALDQPSFVPKSPDASSAFSPASPATPNGTKGKDESQHTESMVLQSSRGIKVEGCVRMYELVHRMKGTEGLRLWQEEQERKVQALSEMASEQLKRFDEWKELKQHKEFQDLREVMEKSSREALGHQEKLKAEHRHRAKILNLKLREAEQQRVKQAEQERLRKEEGQIRLRALYALQEEMLQLSQQLDASEQHKALLKVDLAAFQTRGNQLCSLISGIIRASSESSYPTAESQAEAERALREMRDLLMNLGQEITRACEDKRRQDEEEAQVKLQEAQMQQGPEAH
notes: also called Gle1^(1–360 45–54); source: E. coli Rosetta, purified (amylose resin, on-column cleavage, S200 SEC)
B5: MBP-Gle1^1–152 (domain or fragment, human, UniProt Q53GS7 1-152, looked up)
chain: MPSEGRCWETLKALRSSDKGRLCYYRDWLLRREDVLEECMSLPKLSSYSGWVVEHVLPHMQENQPLSETSPSSTSASALDQPSFVPKSPDASSAFSPASPATPNGTKGKDESQHTESMVLQSSRGIKVEGCVRMYELVHRMKGTEGLRLWQE
notes: source: E. coli Rosetta, purified (amylose resin eluted with maltose, ion exchange); not shown: MBP, N-terminal, kept

Key:
[1] = biological target: SspB-Gle1^152–360 fusion protein (E. coli | human) (UniProt Q53GS7); assay: SEC-MALS; ACCORD (forced dimerization by SspB); Superose 6 10/300 GL; 20 mM HEPES (pH 7.6), 200 mM NaCl, 5% glycerol, 0.5 mM TCEP, 0.05% azide
[2] = biological target: the molecule itself; assay: SEC; S200 size-exclusion chromatography; 20 mM HEPES, pH 7.5, 200 mM NaCl, 0.5 mM TCEP, 10% glycerol; MBP as a size reference
[3] = biological target: the molecule itself; assay: native gel or EMSA; 4–15% acrylamide gradient native PAGE, 150 V for 90 min, Coomassie staining

Row | Molecule | binding result [2] | other results
1 | SspB-Gle1^152–360 fusion protein (from UniProt Q53GS7 152-360) |  | stoichiometry N [1]: 2
2 | B1 | binds | 
3 | B2 |  | binding result [3]: binds
4 | B3 | binds | 
5 | B4 | binds | 
6 | B5 | binds | 
